The values that follow come from patent US20230159612A1 (MEDIGENE IMMUNOTHERAPIES, published 2023).

Assay [1] has as its target T1, MAGE-A4GVY-MHC-multimer (MAGE-A4 230-239, …; immuneAware) (human).
T1 construct: Bought reagent (immuneAware); also called GVY-specific tetramer
The assay can be described thus: flow cytometry, multimer staining of TCR-transduced CD8+ T cells, gated on live CD8+/mCb+ cells. The text has this: Transduced CD8+ T cells were enriched by FACS using the murine constant beta region as a marker for transduction. After expansion of these cells, they were stained with an MAGE-A4GVY-MHC-multimer and antibodies against CD8 and the murine constant beta region (mmCb) and analyzed by flow cytometry. Populations were gated on live CD8+/mCb+ cells and staining of multimer/CD8 is shown.
They were stained with a MAGE-A4GVY-MHC-multimer (MAGE-A4²³⁰⁻²³⁹, […]; immuneAware) and antibodies against CD8 and the murine constant beta region. All MAGE-A4-TCR-transgenic T cell populations bound the MAGE-A4GVY-MHC-multimer very efficiently (>70%).

Assay [2] deals with T1, MAGE-A4GVY-MHC-multimer (MAGE-A4 …). The assay can be described thus: flow cytometry, multimer staining of TCR-transduced CD3+ T cells, gated on live CD3+ cells. The text has this:
After expansion of these cells, they were stained with a MAGE-A4GVY-MHC-multimer and antibody against CD3 and analyzed by flow cytometry. Populations were gated on live CD3+ cells and multimer staining.
After expansion, the transduced T cells were stained with a MAGE-A4GVY-MHC-multimer (MAGE-A4²³⁰⁻²³⁹, […]; immuneAware) and antibodies against CD3. Populations were gated on live CD3⁺ cells and multimer staining. All MAGE-A4-TCR-transgenic T cell populations bound the MAGE-A4GVY-MHC-multimer very efficiently (>70%).

B1: TCR-3 containing murinized Cα and Cβ regions (TCR)
TCR alpha: GENVEQHPSTLSVQEGDSAVIKCTYSDSASNYFPWYKQELGKRPQLIIDIRSNVGEKKDQRIAVTLNKTAKHFSLHITETQPEDSAVYFCAASRGTGFQKLVFGTGTRLLVSPNIQNPEPAVYQLKDPRSQDSTLCLFTDFDSQINVPKTMESGTFITDKTVLDMKAMDSKSNGAIAWSNQTSFTCQDIFKETNATYPSSDVPCDATLTEKSFETDMNLNFQNLSVMGLRILLLKVAGFNLLMTLRLWSS
TCR beta: DTAVSQTPKYLVTQMGNDKSIKCEQNLGHDTMYWYKQDSKKFLKIMFSYNNKELIINETVPNRFSPKSPDKAHLNLHINSLELGDSAVYFCASSQFWDGAGDEQYFGPGTRLTVTEDLRNVTPPKVTLFEPSKAEIANKQKATLVCLARGFFPDHVELSWWVNGKEVHSGVSTDPQAYKESNYSYCLSSRLRVSATFWHNPRNHFRCQVQFHGLSEEDKWPEGSPKPVTQNISAEAWGRADCGITSASYHQGVLSATILYEILLGKATLYAVLVSGLVLMAMVKKKNS
notes: Expressed on the surface of retrovirally transduced human CD8+ T cells; Human variable regions with murine constant regions; also called MAGE-A4-TCR
B1: in assay [1], the “percent of cells stained by the multimer” value was above 70%.

B2: MAGE-A4 TCR-4 (fully human TCR) (TCR)
TCR alpha: AQKITQTQPGMFVQEKEAVTLDCTYDTSDQSYGLFWYKQPSSGEMIFLIYQGSYDEQNATEGRYSLNFQKARKSANLVISASQLGDSAMYFCAMSGDSAGNMLTFGGGTRLMVKPHIQNPDPAVYQLRDSKSSDKSVCLFTDFDSQTNVSQSKDSDVYITDKTVLDMRSMDFKSNSAVAWSNKSDFACANAFNNSIIPEDTFFPSPESSCDVKLVEKSFETDTNLNFQNLSVIGFRILLLKVAGFNLLMTLRLWSS
TCR beta: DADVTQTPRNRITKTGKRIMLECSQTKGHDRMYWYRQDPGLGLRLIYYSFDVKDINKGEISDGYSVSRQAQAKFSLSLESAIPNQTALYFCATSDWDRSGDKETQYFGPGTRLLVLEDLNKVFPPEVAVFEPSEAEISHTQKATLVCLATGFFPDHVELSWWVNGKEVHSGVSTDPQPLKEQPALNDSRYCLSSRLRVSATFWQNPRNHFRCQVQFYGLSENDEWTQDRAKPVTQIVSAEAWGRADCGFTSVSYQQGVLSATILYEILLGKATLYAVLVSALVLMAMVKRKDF
notes: no leader limits stated
As to B2, the “percent of cells stained by the multimer” value in assay [2] was above 70%.

B3: MAGE-A4 TCR-5 (fully human TCR) (TCR)
TCR alpha: AQKITQTQPGMFVQEKEAVTLDCTYDTSDPSYGLFWYKQPSSGEMIFLIYQGSYDQQNATEGRYSLNFQKARKSANLVISASQLGDSAMYFCAMSGGYTGGFKTIFGAGTRLFVKANIQNPDPAVYQLRDSKSSDKSVCLFTDFDSQTNVSQSKDSDVYITDKTVLDMRSMDFKSNSAVAWSNKSDFACANAFNNSIIPEDTFFPSPESSCDVKLVEKSFETDTNLNFQNLSVIGFRILLLKVAGFNLLMTLRLWSS
TCR beta: DSGVTQTPKHLITATGQRVTLRCSPRSGDLSVYWYQQSLDQGLQFLIQYYNGEERAKGNILERFSAQQFPDLHSELNLSSLELGDSALYFCASSGGDGDEQFFGPGTRLTVLEDLKNVFPPEVAVFEPSEAEISHTQKATLVCLATGFYPDHVELSWWVNGKEVHSGVSTDPQPLKEQPALNDSRYCLSSRLRVSATFWQNPRNHFRCQVQFYGLSENDEWTQDRAKPVTQIVSAEAWGRADCGFTSESYQQGVLSATILYEILLGKATLYAVLVSALVLMAMVKRKDSRG
notes: no leader limits stated
In the case of B3, the “percent of cells stained by the multimer” value in assay [2] is above 70%.

B4: TCR-1 containing murinized Cα and Cβ regions (TCR)
TCR alpha: AQKITQTQPGMFVQEKEAVTLDCTYDTSDQSYGLFWYKQPSSGEMIFLIYQGSYDEQNATEGRYSLNFQKARKSANLVISASQLGDSAMYFCAMSGDSAGNMLTFGGGTRLMVKPHIQNPEPAVYQLKDPRSQDSTLCLFTDFDSQINVPKTMESGTFITDKTVLDMKAMDSKSNGAIAWSNQTSFTCQDIFKETNATYPSSDVPCDATLTEKSFETDMNLNFQNLSVMGLRILLLKVAGFNLLMTLRLWSS
TCR beta: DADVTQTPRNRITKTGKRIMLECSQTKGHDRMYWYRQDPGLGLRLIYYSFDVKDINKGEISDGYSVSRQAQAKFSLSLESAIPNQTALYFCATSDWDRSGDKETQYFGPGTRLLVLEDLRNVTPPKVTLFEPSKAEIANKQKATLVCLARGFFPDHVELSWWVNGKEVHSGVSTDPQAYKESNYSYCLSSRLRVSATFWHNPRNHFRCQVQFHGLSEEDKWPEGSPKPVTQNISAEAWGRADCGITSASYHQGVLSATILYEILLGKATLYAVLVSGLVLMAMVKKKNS
notes: as for B1
As to B4, in assay [1], the “percent of cells stained by the multimer” value is above 70%.

B5: TCR-2 containing murinized Cα and Cβ regions (TCR)
TCR alpha: AQKITQTQPGMFVQEKEAVTLDCTYDTSDPSYGLFWYKQPSSGEMIFLIYQGSYDQQNATEGRYSLNFQKARKSANLVISASQLGDSAMYFCAMSGGYTGGFKTIFGAGTRLFVKANIQNPEPAVYQLKDPRSQDSTLCLFTDFDSQINVPKTMESGTFITDKTVLDMKAMDSKSNGAIAWSNQTSFTCQDIFKETNATYPSSDVPCDATLTEKSFETDMNLNFQNLSVMGLRILLLKVAGFNLLMTLRLWSS
TCR beta: DSGVTQTPKHLITATGQRVTLRCSPRSGDLSVYWYQQSLDQGLQFLIQYYNGEERAKGNILERFSAQQFPDLHSELNLSSLELGDSALYFCASSGGDGDEQFFGPGTRLTVLEDLRNVTPPKVTLFEPSKAEIANKQKATLVCLARGFFPDHVELSWWVNGKEVHSGVSTDPQAYKESNYSYCLSSRLRVSATFWHNPRNHFRCQVQFHGLSEEDKWPEGSPKPVTQNISAEAWGRADCGITSASYHQGVLSATILYEILLGKATLYAVLVSGLVLMAMVKKKNS
notes: as for B1
For the molecule B5, the “percent of cells stained by the multimer” value in assay [1] is above 70%.

B6: MAGE-A4 TCR-6 (fully human TCR) (TCR)
TCR alpha: GENVEQHPSTLSVQEGDSAVIKCTYSDSASNYFPWYKQELGKRPQLIIDIRSNVGEKKDQRIAVTLNKTAKHFSLHITETQPEDSAVYFCAASRGTGFQKLVFGTGTRLLVSPNIQNPDPAVYQLRDSKSSDKSVCLFTDFDSQTNVSQSKDSDVYITDKTVLDMRSMDFKSNSAVAWSNKSDFACANAFNNSIIPEDTFFPSPESSCDVKLVEKSFETDTNLNFQNLSVIGFRILLLKVAGFNLLMTLRLWSS
TCR beta: DTAVSQTPKYLVTQMGNDKSIKCEQNLGHDTMYWYKQDSKKFLKIMFSYNNKELIINETVPNRFSPKSPDKAHLNLHINSLELGDSAVYFCASSQFWDGAGDEQYFGPGTRLTVTEDLNKVFPPEVAVFEPSEAEISHTQKATLVCLATGFFPDHVELSWWVNGKEVHSGVSTDPQPLKEQPALNDSRYCLSSRLRVSATFWQNPRNHFRCQVQFYGLSENDEWTQDRAKPVTQIVSAEAWGRADCGFTSVSYQQGVLSATILYEILLGKATLYAVLVSALVLMAMVKRKD
notes: no leader limits stated
In the case of B6, the “percent of cells stained by the multimer” value in assay [2] was above 70%.
